Data taken from patent US20090092581A1.
Values joined by “and” are separate entries in the source; they are usually repeats but may differ in a detail not shown here. Identical values can stand only once.

T1: Type I IFN receptor on iLite human IFN-α gene-reporter cells (human) (UniProt P17181)
T1 sequence (looked up) 1: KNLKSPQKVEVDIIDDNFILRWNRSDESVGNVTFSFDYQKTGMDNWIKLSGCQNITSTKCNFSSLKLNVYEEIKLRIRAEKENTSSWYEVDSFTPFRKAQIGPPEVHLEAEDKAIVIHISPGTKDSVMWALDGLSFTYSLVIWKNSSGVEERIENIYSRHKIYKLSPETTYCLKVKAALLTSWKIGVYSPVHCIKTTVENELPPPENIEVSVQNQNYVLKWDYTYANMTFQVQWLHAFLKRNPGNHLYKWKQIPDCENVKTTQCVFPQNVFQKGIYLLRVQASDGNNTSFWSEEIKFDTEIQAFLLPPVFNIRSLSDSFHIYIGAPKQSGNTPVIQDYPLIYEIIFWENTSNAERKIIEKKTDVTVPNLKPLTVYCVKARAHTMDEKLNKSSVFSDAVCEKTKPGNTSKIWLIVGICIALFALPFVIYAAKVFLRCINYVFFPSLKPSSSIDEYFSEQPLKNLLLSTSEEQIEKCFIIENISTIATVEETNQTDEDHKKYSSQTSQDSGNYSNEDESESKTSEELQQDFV
T1 sequence (looked up) 2: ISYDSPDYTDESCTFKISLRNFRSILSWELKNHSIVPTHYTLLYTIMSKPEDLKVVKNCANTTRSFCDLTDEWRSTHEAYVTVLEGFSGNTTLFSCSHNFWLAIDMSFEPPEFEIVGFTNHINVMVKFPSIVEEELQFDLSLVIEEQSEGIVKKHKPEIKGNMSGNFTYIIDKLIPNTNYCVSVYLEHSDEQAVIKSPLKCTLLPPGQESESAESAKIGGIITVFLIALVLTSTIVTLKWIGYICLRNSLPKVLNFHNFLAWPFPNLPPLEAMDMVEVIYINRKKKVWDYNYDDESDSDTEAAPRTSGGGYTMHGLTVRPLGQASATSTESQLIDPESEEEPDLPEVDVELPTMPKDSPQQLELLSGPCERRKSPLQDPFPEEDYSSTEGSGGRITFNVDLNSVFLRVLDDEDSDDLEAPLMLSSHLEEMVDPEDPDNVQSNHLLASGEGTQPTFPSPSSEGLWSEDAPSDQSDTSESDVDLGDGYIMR


What was measured:
[1] = target: T1, Type I IFN receptor on iLite human IFN-α gene-reporter cells (human); experiment: cell-based or functional assay
[2] = target: Cynomolgus IFN-α protein SEQ ID 54, expressed in Vero tissue culture supernatant (Cynomolgus (Macaca fascicularis)); experiment: ELISA kit PBL #41105 on Vero supernatant; read against human IFN-α2a standard curve; unit not given; second of two values
[3] = target: Cynomolgus IFN-α protein SEQ ID 54, expressed in Vero tissue culture supernatant (Cynomolgus (Macaca fascicularis)); experiment: ELISA kit PBL #41105 on Vero supernatant; read against human IFN-α2a standard curve; unit not given; first of two values
[4] = target: Cynomolgus IFN-α protein SEQ ID 58, expressed in Vero tissue culture supernatant (Cynomolgus (Macaca fascicularis)); experiment: ELISA kit PBL #41105 on Vero supernatant; read against human IFN-α2a standard curve; unit not given
[5] = target: Cynomolgus IFN-α protein SEQ ID 56, expressed in Vero tissue culture supernatant (Cynomolgus (Macaca fascicularis)); experiment: as above
[6] = target: Cynomolgus IFN-α protein SEQ ID 50, expressed in Vero tissue culture supernatant (Cynomolgus (Macaca fascicularis)); experiment: as above
[7] = target: Cynomolgus IFN-α protein SEQ ID 66, expressed in Vero tissue culture supernatant (Cynomolgus (Macaca fascicularis)); experiment: as above
[8] = target: Cynomolgus IFN-α protein SEQ ID 60, expressed in Vero tissue culture supernatant (Cynomolgus (Macaca fascicularis)); experiment: as above
[9] = target: Cynomolgus IFN-α protein SEQ ID 62, expressed in Vero tissue culture supernatant (Cynomolgus (Macaca fascicularis)); experiment: as above
[10] = target: Cynomolgus IFN-α protein SEQ ID 46, expressed in Vero tissue culture supernatant (Cynomolgus (Macaca fascicularis)); experiment: as above
[11] = target: Cynomolgus IFN-α protein SEQ ID 42, expressed in Vero tissue culture supernatant (Cynomolgus (Macaca fascicularis)); experiment: as above

% Neutralization of Luciferase Induction by anti-Type I IFN Receptor Antibody (25 µg/mL) [1] [%] | Luciferase Induction Activity (U/mL) [1] [U/mL] | Molecule | other results
> 99 | 16000 | Cynomolgus IFN-α protein SEQ ID 62, expressed in Vero tissue culture supernatant (from UniProt P01571 24-189) (ligand) | 
> 99 | 48900 | Cynomolgus IFN-α protein SEQ ID 60, expressed in Vero tissue culture supernatant (from UniProt P32881 24-189) (ligand) | 
> 99 | 2700 | Cynomolgus IFN-α protein SEQ ID 46, expressed in Vero tissue culture supernatant (from UniProt P01571 24-189) (ligand) | 
> 99 | 36700 | Cynomolgus IFN-α protein SEQ ID 42, expressed in Vero tissue culture supernatant (from UniProt P01571 24-189) (ligand) | 
> 99 | 11600 | Cynomolgus IFN-α protein SEQ ID 54, expressed in Vero tissue culture supernatant (from UniProt P01568 24-188) (ligand) | 
> 99 | 6630 | Cynomolgus IFN-α protein SEQ ID 66, expressed in Vero tissue culture supernatant (from UniProt P01563 24-188) (ligand) | 
> 99 | 8950 | Cynomolgus IFN-α protein SEQ ID 58, expressed in Vero tissue culture supernatant (from UniProt P01570 24-189) (ligand) | 
 |  | Human IFN-α Multi-Subtype ELISA kit, PBL # 41105 (kit antibodies) (antibody) | ELISA estimate of IFN-α protein level in tissue culture supernatant [2]: 8; ELISA estimate of IFN-α protein level in tissue culture supernatant [3]: 8; ELISA estimate of IFN-α protein level in tissue culture supernatant [4]: > 1120; ELISA estimate of IFN-α protein level in tissue culture supernatant [5]: 289 and 414; ELISA estimate of IFN-α protein level in tissue culture supernatant [6]: > 1120; ELISA estimate of IFN-α protein level in tissue culture supernatant [7]: > 651 and 1500; ELISA estimate of IFN-α protein level in tissue culture supernatant [8]: > 651 and 1000; ELISA estimate of IFN-α protein level in tissue culture supernatant [9]: 75 and 95; ELISA estimate of IFN-α protein level in tissue culture supernatant [10]: 187 and 123; ELISA estimate of IFN-α protein level in tissue culture supernatant [11]: 287 and 566
> 99 | 515 | Cynomolgus IFN-α protein SEQ ID 52, expressed in Vero tissue culture supernatant (ligand) MALSFSLLMAVVVLSYKSICSLGCDLPQTHSLGHRRALILLAQMQRISLPSCLKDRHDFAFLQEFDGNQFQKAQAMSVLHEMIQQTFNLLSTKDSSAAWDETLLDKFYIELFQQLNDLEACVIQEAGVEETPLMNEDSILAVRKYFQRITLYLTEKKYSPCAWEVVRAEIMRSLSFSTNLQKRLGRKD | 
> 99 | 8040 | Cynomolgus IFN-α protein SEQ ID 50, expressed in Vero tissue culture supernatant (ligand) CNPSQTHNMNNRRTLMLMAQMRRISPFSCLKDRNDFEFPQEEFDGNQFQNTQAISVLHEMMQQTFNLFSTKDSSAAWDETLLDKFYIELFQQLNDLEACVIQEAGVEETPLMNEDSILAVRKYFQRITLYLMEKKYSPCAWEVVRAEIMRSLSFSTNLQKRLRRKD | 
> 99 | 822 | Cynomolgus IFN-α protein SEQ ID 56, expressed in Vero tissue culture supernatant (ligand) CDLPQTHSLGHRRALILLAQMGRISPFSCLKDRHDFGFPQEEFDGNQFQKAQAMSVLHEMIQQTFNLFSTKDSSAAWEQNLLEKFSAELYQQLNDLKACVIAEPGMEDTPLMNEDSILAVKKYFQRITLYLTEKKYSPCAWEVVRAEIMRSLSFSTNLQKRLRRKD | 
> 99 | 2830 | Cynomolgus IFN-α protein SEQ ID 44, expressed in Vero tissue culture supernatant (ligand) CDLPQTHSLGHRRALILLAQMGRISPFSCLKDRRDFAFPQEEFDGNQFQKAQAMSVLHEMIQQTFNLFSTKDSSAAWEQNLLEKFSAELYQQLNDLKACVIAEPGMEDTPLMNEDSILAVKKYFQRITLYLTEKKYSPCAWEVVRTEIMRSLSFSTNLQKRLRRKD | 
> 99 | 2170 | Cynomolgus IFN-α protein SEQ ID 48, expressed in Vero tissue culture supernatant (ligand) MALSFSLLMAVVVLSYKSICSLGCDPPRTHSLGHRRALILLAQMERISPFSCLKDRCDFAFPQEEFDGNQFQKAQAMSVLHEMIQQTFNLFSTKDSSAAWEQNLLEKFSAELYQQLNDLKACVIAEPGMEETLLMNEDSILAVKKYFQRITLYLTEKKYSPCAWEVVRAEIMRSLSFSTNLQKRLRRKD | 
